Assay results: paper PMC7868338, “Identification of Functional Interactome of Colistin Resistance Protein MCR-1 in Escherichia coli” (Frontiers in Microbiology, 2020)

Legend:
[1] = molecular target: T1, SspB protein (SPR analyte) (E. coli, UniProt P0AFZ3 1-165); assay: SPR
T1 chain: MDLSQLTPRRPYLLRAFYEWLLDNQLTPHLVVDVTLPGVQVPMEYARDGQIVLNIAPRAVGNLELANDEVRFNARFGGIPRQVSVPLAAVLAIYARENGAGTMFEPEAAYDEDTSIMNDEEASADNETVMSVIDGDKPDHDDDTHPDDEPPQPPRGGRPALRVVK

[2] = molecular target: T2, MCR-1-200 catalytic domain protein (E. coli (strain SHP45), UniProt A0A0R6L508 201-541); assay: SPR; Reichert 4SPR; MCR-1 or MCR-1-200 in PBS directly immobilised on a Planar Mixed SAM chip; SspB 0.156-5 μM (twofold dilutions) in PBST pH 7.4, 0.05% Tween-20; conditions: both partners purified
T2 construct: catalytic domain of MCR-1, 341 amino acids; also called catalytic domain of MCR-1; MCR-1 catalytic protein; source: E. coli BL21 (DE3) (pET28a-mcr-1-200), IPTG-induced; in lysate (1% DDM) for the Co-IP; purified (Ni-NTA) for SPR
T2 sequence: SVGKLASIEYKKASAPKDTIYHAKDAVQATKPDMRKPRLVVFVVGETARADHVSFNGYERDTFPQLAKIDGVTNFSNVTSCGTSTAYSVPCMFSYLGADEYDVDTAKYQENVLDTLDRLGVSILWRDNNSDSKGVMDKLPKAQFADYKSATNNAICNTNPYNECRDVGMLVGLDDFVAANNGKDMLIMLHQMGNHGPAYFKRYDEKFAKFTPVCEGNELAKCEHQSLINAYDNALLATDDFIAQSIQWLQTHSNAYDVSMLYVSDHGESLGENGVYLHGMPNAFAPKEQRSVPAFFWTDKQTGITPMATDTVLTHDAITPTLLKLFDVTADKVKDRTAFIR

[3] = molecular target: T3, MCR-1 full-length protein (E. coli (strain SHP45), UniProt A0A0R6L508 1-541); assay: as above; conditions: both partners purified
T3 construct: MCR-1, phosphoethanolamine transferase; gene amplified from E. coli strain SHP45; 541 amino acids; also called His6-MCR-1; source: E. coli BL21 (DE3) (pET28a-mcr-1), IPTG-induced; in lysate (1% DDM) for the Co-IP; purified (Ni-NTA) for SPR
T3 sequence: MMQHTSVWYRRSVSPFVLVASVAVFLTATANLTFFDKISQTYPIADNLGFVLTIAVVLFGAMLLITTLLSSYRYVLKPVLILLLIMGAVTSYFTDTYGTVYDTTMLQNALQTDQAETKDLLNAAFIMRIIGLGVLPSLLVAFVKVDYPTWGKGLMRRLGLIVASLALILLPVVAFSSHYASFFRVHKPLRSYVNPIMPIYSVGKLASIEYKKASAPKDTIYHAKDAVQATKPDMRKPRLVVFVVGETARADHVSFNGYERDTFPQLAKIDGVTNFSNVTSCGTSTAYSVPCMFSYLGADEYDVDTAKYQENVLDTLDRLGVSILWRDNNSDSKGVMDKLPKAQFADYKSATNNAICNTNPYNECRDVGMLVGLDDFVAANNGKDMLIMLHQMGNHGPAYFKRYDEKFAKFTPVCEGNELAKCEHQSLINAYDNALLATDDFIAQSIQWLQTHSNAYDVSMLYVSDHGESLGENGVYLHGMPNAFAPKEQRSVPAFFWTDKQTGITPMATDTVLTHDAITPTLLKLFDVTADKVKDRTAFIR

B1: MCR-1-200 catalytic domain protein (domain or fragment)
chain: SVGKLASIEYKKASAPKDTIYHAKDAVQATKPDMRKPRLVVFVVGETARADHVSFNGYERDTFPQLAKIDGVTNFSNVTSCGTSTAYSVPCMFSYLGADEYDVDTAKYQENVLDTLDRLGVSILWRDNNSDSKGVMDKLPKAQFADYKSATNNAICNTNPYNECRDVGMLVGLDDFVAANNGKDMLIMLHQMGNHGPAYFKRYDEKFAKFTPVCEGNELAKCEHQSLINAYDNALLATDDFIAQSIQWLQTHSNAYDVSMLYVSDHGESLGENGVYLHGMPNAFAPKEQRSVPAFFWTDKQTGITPMATDTVLTHDAITPTLLKLFDVTADKVKDRTAFIR
[1]
  koff: 0.0106 s⁻¹

B2: SspB protein (SPR analyte) (natural protein)
chain: MDLSQLTPRRPYLLRAFYEWLLDNQLTPHLVVDVTLPGVQVPMEYARDGQIVLNIAPRAVGNLELANDEVRFNARFGGIPRQVSVPLAAVLAIYARENGAGTMFEPEAAYDEDTSIMNDEEASADNETVMSVIDGDKPDHDDDTHPDDEPPQPPRGGRPALRVVK
notes: Stringent starvation protein B, E. coli; also called Stringent starvation protein B
[2]
  Kd: 5.13 µM
[3]
  Kd: 140 µM

B3: MCR-1 full-length protein (enzyme)
chain: MMQHTSVWYRRSVSPFVLVASVAVFLTATANLTFFDKISQTYPIADNLGFVLTIAVVLFGAMLLITTLLSSYRYVLKPVLILLLIMGAVTSYFTDTYGTVYDTTMLQNALQTDQAETKDLLNAAFIMRIIGLGVLPSLLVAFVKVDYPTWGKGLMRRLGLIVASLALILLPVVAFSSHYASFFRVHKPLRSYVNPIMPIYSVGKLASIEYKKASAPKDTIYHAKDAVQATKPDMRKPRLVVFVVGETARADHVSFNGYERDTFPQLAKIDGVTNFSNVTSCGTSTAYSVPCMFSYLGADEYDVDTAKYQENVLDTLDRLGVSILWRDNNSDSKGVMDKLPKAQFADYKSATNNAICNTNPYNECRDVGMLVGLDDFVAANNGKDMLIMLHQMGNHGPAYFKRYDEKFAKFTPVCEGNELAKCEHQSLINAYDNALLATDDFIAQSIQWLQTHSNAYDVSMLYVSDHGESLGENGVYLHGMPNAFAPKEQRSVPAFFWTDKQTGITPMATDTVLTHDAITPTLLKLFDVTADKVKDRTAFIR
[1]
  koff: 0.325 s⁻¹
